Reference: patent US20200199241A1 (Chugai, published 2020)

T1: human FcγRIIb (human, UniProt P31994 43-217, limits assumed)
T1 construct: also called FcgRIIb; hFcgRIIb
T1 sequence: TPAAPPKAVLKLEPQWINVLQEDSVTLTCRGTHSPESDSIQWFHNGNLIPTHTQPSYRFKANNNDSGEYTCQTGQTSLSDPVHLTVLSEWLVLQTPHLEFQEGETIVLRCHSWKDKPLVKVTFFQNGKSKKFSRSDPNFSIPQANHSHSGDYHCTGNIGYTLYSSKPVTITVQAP

T2: human FcγRIIa(H) (human, UniProt P12318 36-217)
T2 construct: also called FcgRIIaH; hFcgRIIa(H)
T2 sequence: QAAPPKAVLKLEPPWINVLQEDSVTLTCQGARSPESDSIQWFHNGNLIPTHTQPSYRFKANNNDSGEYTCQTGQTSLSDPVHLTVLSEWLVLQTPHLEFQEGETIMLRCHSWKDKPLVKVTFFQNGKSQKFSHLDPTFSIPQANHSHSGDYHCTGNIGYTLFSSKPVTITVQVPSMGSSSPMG

T3: human FcγRIIa(R) (human, UniProt P12318 36-217)
T3 construct: also called FcgRIIaR; hFcgRIIa(R)
T3 chain: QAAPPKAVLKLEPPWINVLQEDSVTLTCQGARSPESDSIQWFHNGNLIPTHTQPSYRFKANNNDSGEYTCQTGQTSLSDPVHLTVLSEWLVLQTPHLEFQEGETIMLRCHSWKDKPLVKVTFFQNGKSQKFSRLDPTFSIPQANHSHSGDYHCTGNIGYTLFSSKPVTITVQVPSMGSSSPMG

T4: human FcγRIIb (human, UniProt P31994 43-217, limits assumed)
T4 construct: also called FcgRIIb
T4 sequence: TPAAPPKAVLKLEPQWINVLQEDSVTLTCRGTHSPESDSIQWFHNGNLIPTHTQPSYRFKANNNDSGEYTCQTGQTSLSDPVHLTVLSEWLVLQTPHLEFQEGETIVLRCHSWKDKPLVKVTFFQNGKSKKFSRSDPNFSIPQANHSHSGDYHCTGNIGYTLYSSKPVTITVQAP

T5: human FcγRIIa(R) (human, UniProt P12318 36-217)
T5 construct: also called FcgRIIaR; FcγRIIa type R
T5 chain: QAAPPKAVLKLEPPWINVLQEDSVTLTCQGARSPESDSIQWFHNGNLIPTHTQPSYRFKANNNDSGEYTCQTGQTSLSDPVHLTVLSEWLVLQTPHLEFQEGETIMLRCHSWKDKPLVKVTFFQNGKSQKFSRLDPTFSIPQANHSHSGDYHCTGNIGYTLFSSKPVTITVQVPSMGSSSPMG

T6: human FcγRIIa(H) (human, UniProt P12318 36-217)
T6 construct: also called FcgRIIaH; FcγRIIa type H
T6 sequence: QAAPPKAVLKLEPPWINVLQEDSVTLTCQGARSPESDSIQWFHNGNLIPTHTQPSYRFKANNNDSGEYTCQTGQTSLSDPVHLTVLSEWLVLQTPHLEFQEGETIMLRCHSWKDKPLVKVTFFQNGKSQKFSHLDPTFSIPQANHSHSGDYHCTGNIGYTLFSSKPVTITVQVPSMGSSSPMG


Assays:
[1] = target: T1, human FcγRIIb; assay: SPR, captured antibody;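 note: antibody captured on a sensor chip, Fcγ receptor flowed over at 25 °C, receptor binding normalized to the captured antibody amount and expressed relative to the reference antibody ×100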
[2] = target: T7, human FcγRIa (human, UniProt P12314 16-292, limits assumed); assay: SPR, captured antibody;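 note: antibody captured on a sensor chip, Fcγ receptor flowed over at 25 °C, receptor binding normalized to the captured antibody amount and expressed relative to the reference antibody ×100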
T7 construct: also called FcgRIa; hFcgRIa
T7 sequence (P12314 16-292 limits assumed): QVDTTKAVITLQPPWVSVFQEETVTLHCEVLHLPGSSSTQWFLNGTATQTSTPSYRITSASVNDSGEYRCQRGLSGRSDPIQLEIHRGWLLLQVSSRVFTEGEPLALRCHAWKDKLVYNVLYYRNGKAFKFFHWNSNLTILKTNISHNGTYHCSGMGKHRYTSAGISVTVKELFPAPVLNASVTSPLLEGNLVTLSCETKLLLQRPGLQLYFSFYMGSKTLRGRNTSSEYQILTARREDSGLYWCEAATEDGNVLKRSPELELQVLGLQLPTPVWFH

[3] = target: T2, human FcγRIIa(H); assay: SPR, captured antibody;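 note: antibody captured on a sensor chip, Fcγ receptor flowed over at 25 °C, receptor binding normalized to the captured antibody amount and expressed relative to the reference antibody ×100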
[4] = target: T3, human FcγRIIa(R); assay: SPR, captured antibody;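 note: antibody captured on a sensor chip, Fcγ receptor flowed over at 25 °C, receptor binding normalized to the captured antibody amount and expressed relative to the reference antibody ×100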
[5] = target: T4, human FcγRIIb; assay: SPR (Biacore);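 note: antibody variants captured on sensor chip, Fcγ receptor flowed over at 25 °C, bound receptor normalized to amount of captured antibody, expressed relative to reference antibody set as 100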
Protocol: (§1) Interaction between each modified antibody and Fcγ receptor prepared in the manner described above was analyzed using the BIACORE™ T100 surface plasmon resonance system (GE Healthcare), BIACORE™ T200 surface plasmon resonance system (GE Healthcare), BIACORE™ A100 surface plasmon resonance system or BIACORE™ 4000 surface plasmon resonance system. HBS-EP+ (GE Healthcare) was used for the running buffer, and measurements were carried out at 25° C. The chips used were chips in which antigen peptides, Protein A (Thermo Scientific), Protein A/G (Thermo Scientific) or Protein L (ACTIGEN® protein (Alltech or BioVision) were immobilized on the Series S Sensor Chip CMS (GE Healthcare) or Series S Sensor Chip CM4 (GE Healthcare) by amine coupling, or chips in which preliminarily biotinylated antigen peptides were allowed to interact and then immobilized on the Series S Sensor Chip SA (certified) (GE Healthcare). The target antibodies were captured on these sensor chips, Fcγ receptor diluted with the running buffer was allowed to interact, followed by measurement of the amount of bound antibody. The amounts bound were compared between antibodies. However, since the amount of Fcγ receptor bound depends on the amount of captured antibody, the values used for comparison were first corrected by dividing the amount of Fcγ receptor bound by the captured amount of each antibody. Through reaction with 10 mM glycine-HCl at pH 1.5, the sensor chips were regenerated by washing off antibody captured on the sensor chips and used repeatedly.
(§2) Binding strength was evaluated according to the following method based on the results of analyzing the interaction with each FcγR. […] That value was then further multiplied by 100, and the resulting value was used as an indicator of relative binding activity to each FcγR.

[6] = target: T5, human FcγRIIa(R); assay: SPR (Biacore);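 note: antibody variants captured on sensor chip, Fcγ receptor flowed over at 25 °C, bound receptor normalized to amount of captured antibody, expressed relative to reference antibody set as 100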
Protocol: as §1, §2

[7] = target: T8, human FcγRIIIa(F) (human, UniProt P08637 17-208, limits assumed); assay: SPR (Biacore);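 note: antibody variants captured on sensor chip, Fcγ receptor flowed over at 25 °C, bound receptor normalized to amount of captured antibody, expressed relative to reference antibody set as 100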
T8 construct: also called FcgRIIIaF; allotype F158
Protocol: as §1, §2

[8] = target: T6, human FcγRIIa(H); assay: SPR (Biacore);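 note: antibody variants captured on sensor chip, Fcγ receptor flowed over at 25 °C, bound receptor normalized to amount of captured antibody, expressed relative to reference antibody set as 100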
Protocol: as §1, §2

[9] = target: T9, human FcγRIa (human, UniProt P12314 16-292, limits assumed); assay: SPR (Biacore)
T9 construct: also called FcgRIa; FcγRI (CD64)
T9 sequence (P12314 16-292 limits assumed): as above
Protocol: as §1, §2

T8 sequence (P08637 other isoform, or with tags, fused parts or gaps limits assumed): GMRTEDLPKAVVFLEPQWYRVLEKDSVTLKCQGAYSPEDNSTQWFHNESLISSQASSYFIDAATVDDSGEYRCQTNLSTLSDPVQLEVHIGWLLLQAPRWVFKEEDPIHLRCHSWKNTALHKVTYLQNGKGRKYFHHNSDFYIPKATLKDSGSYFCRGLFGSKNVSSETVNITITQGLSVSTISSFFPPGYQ

| Binder | relative binding activity [1] | relative binding activity [2] | relative binding activity [3] | relative binding activity [4] | relative binding activity [5] | relative binding activity [6] | relative binding activity [7] | relative binding activity [8] | relative binding activity [9] |
| --- | --- | --- | --- | --- | --- | --- | --- | --- | --- |
| GpH7-B3 P329K/GpL16-k0 (antibody, human IgG1, B3 variant; copies: 2 + 2) heavy: not shown light: DIVMTQSPLSLPVTPGEPASISCQASESLVHSNRNTYLHWYLQKPGQSPQLLIYKVSNRFSGVPDRFSGSGSGTDFTLKISRVEAEDVGVYYCSQNTHVPPTFGQGTKVEIE | -2 % of GpH7-B3/GpL16-k0 | 6 % of GpH7-B3/GpL16-k0 | -1 % of GpH7-B3/GpL16-k0 | -2 % of GpH7-B3/GpL16-k0 |  |  |  |  |  |
| GpH7-B3 A327H/GpL16-k0 (antibody, human IgG1, B3 variant; copies: 2 + 2) heavy: not shown light: DIVMTQSPLSLPVTPGEPASISCQASESLVHSNRNTYLHWYLQKPGQSPQLLIYKVSNRFSGVPDRFSGSGSGTDFTLKISRVEAEDVGVYYCSQNTHVPPTFGQGTKVEIE | 35 % of GpH7-B3/GpL16-k0 | 93 % of GpH7-B3/GpL16-k0 | 23 % of GpH7-B3/GpL16-k0 | 32 % of GpH7-B3/GpL16-k0 |  |  |  |  |  |
| GpH7-B3 A327L/GpL16-k0 (antibody, human IgG1, B3 variant; copies: 2 + 2) heavy: not shown light: DIVMTQSPLSLPVTPGEPASISCQASESLVHSNRNTYLHWYLQKPGQSPQLLIYKVSNRFSGVPDRFSGSGSGTDFTLKISRVEAEDVGVYYCSQNTHVPPTFGQGTKVEIE | 34 % of GpH7-B3/GpL16-k0 | 98 % of GpH7-B3/GpL16-k0 | 16 % of GpH7-B3/GpL16-k0 | 31 % of GpH7-B3/GpL16-k0 |  |  |  |  |  |
| GpH7-B3 A327K/GpL16-k0 (antibody, human IgG1, B3 variant; copies: 2 + 2) heavy: not shown light: DIVMTQSPLSLPVTPGEPASISCQASESLVHSNRNTYLHWYLQKPGQSPQLLIYKVSNRFSGVPDRFSGSGSGTDFTLKISRVEAEDVGVYYCSQNTHVPPTFGQGTKVEIE | 0 % of GpH7-B3/GpL16-k0 | 57 % of GpH7-B3/GpL16-k0 | 0 % of GpH7-B3/GpL16-k0 | -8 % of GpH7-B3/GpL16-k0 |  |  |  |  |  |
| GpH7-B3 A327M/GpL16-k0 (antibody, human IgG1, B3 variant; copies: 2 + 2) heavy: not shown light: DIVMTQSPLSLPVTPGEPASISCQASESLVHSNRNTYLHWYLQKPGQSPQLLIYKVSNRFSGVPDRFSGSGSGTDFTLKISRVEAEDVGVYYCSQNTHVPPTFGQGTKVEIE | 40 % of GpH7-B3/GpL16-k0 | 95 % of GpH7-B3/GpL16-k0 | 55 % of GpH7-B3/GpL16-k0 | 38 % of GpH7-B3/GpL16-k0 |  |  |  |  |  |

More lines, now with the values ahead:

| relative binding activity [1] | relative binding activity [2] | relative binding activity [3] | relative binding activity [4] | relative binding activity [5] | relative binding activity [6] | relative binding activity [7] | relative binding activity [8] | relative binding activity [9] | Binder |
| --- | --- | --- | --- | --- | --- | --- | --- | --- | --- |
|  |  |  |  | -1 % of GpH7-B3/GpL16-k0 | 0 % of GpH7-B3/GpL16-k0 | -1 % of GpH7-B3/GpL16-k0 | 0 % of GpH7-B3/GpL16-k0 | 2 % of GpH7-B3/GpL16-k0 | GpH7-B3 variant G237K/GpL16-k0 (antibody, human IgG1, copies: 2 + 2) heavy: not shown light: DIVMTQSPLSLPVTPGEPASISCQASESLVHSNRNTYLHWYLQKPGQSPQLLIYKVSNRFSGVPDRFSGSGSGTDFTLKISRVEAEDVGVYYCSQNTHVPPTFGQGTKVEIE |
| 62 % of GpH7-B3/GpL16-k0 | 88 % of GpH7-B3/GpL16-k0 | 51 % of GpH7-B3/GpL16-k0 | 59 % of GpH7-B3/GpL16-k0 |  |  |  |  |  | GpH7-B3 A327S/GpL16-k0 (antibody, human IgG1, B3 variant; copies: 2 + 2) heavy: not shown light: DIVMTQSPLSLPVTPGEPASISCQASESLVHSNRNTYLHWYLQKPGQSPQLLIYKVSNRFSGVPDRFSGSGSGTDFTLKISRVEAEDVGVYYCSQNTHVPPTFGQGTKVEIE |
|  | 69 % of GpH7-B3/GpL16-k0 | 17 % of GpH7-B3/GpL16-k0 | 19 % of GpH7-B3/GpL16-k0 |  |  |  |  |  | GpH7-B3 S298W/GpL16-k0 (antibody, human IgG1, B3 variant; copies: 2 + 2) heavy: not shown light: DIVMTQSPLSLPVTPGEPASISCQASESLVHSNRNTYLHWYLQKPGQSPQLLIYKVSNRFSGVPDRFSGSGSGTDFTLKISRVEAEDVGVYYCSQNTHVPPTFGQGTKVEIE |
| 43 % of GpH7-B3/GpL16-k0 | 97 % of GpH7-B3/GpL16-k0 | 17 % of GpH7-B3/GpL16-k0 | 46 % of GpH7-B3/GpL16-k0 |  |  |  |  |  | GpH7-B3 A327V/GpL16-k0 (antibody, human IgG1, B3 variant; copies: 2 + 2) heavy: not shown light: DIVMTQSPLSLPVTPGEPASISCQASESLVHSNRNTYLHWYLQKPGQSPQLLIYKVSNRFSGVPDRFSGSGSGTDFTLKISRVEAEDVGVYYCSQNTHVPPTFGQGTKVEIE |
|  | 94 % of GpH7-B3/GpL16-k0 | 8 % of GpH7-B3/GpL16-k0 | 76 % of GpH7-B3/GpL16-k0 |  |  |  |  |  | GpH7-B3 N325I/GpL16-k0 (antibody, human IgG1, B3 variant; copies: 2 + 2) heavy: not shown light: DIVMTQSPLSLPVTPGEPASISCQASESLVHSNRNTYLHWYLQKPGQSPQLLIYKVSNRFSGVPDRFSGSGSGTDFTLKISRVEAEDVGVYYCSQNTHVPPTFGQGTKVEIE |
